Data on 167 variants can be found in the RNAGym collection of RNA variant scans (doi:10.7554/elife.90254).

B1: LINE1-full (parent)
chain: UACGUAGGUGGUUUUCCCCUGAUAGUGCUAAGGGGGCCUGGAAGUUUGGACUGGGCAGAGCUCAACACAGCGUGGCAAAGUGGCUGUGGCUAGACUGCCUCUCUGGAUUCCUCGUCACUCAGCAGGGCAUCUCUGAGAGAAAUGCC

Variants of B1 are the subject of the data set. The experiment in a line: self-cleavage, relative activity (ratio to wild type); higher = more cleavage; in vitro, sequencing; the parent is a self-cleaving ribozyme.
G105U A140U: the self-cleavage was determined as 1.53.

With U104A A129G, the self-cleavage was 1.27. For A107G U115A, the self-cleavage amounted to 0.95. Next, A107G U115C: 1.99; U109A: 1.31. For U108C U119A, the self-cleavage is 1.53. The value for U104C A136G was 1.62.

U100C A117G: the self-cleavage stood at 1.49.

For U100C A117C, the self-cleavage stood at 1.31. Next, U100C A117U: 1.63; U104C C123A: 1.73; G106A U108C: 1.61. The value for U102C A138G was 1.42. Next, A107U C113A: 1.68. On to G106A U112A, for which the self-cleavage amounted to 1.64. Next, U102A U132C: 1.69. The value for U108A A140G was 1.58; that for U109A C145G was 0.98.

Consider A107G U143C, for which the self-cleavage amounted to 1.38. The value for G105A G127U was 1.31.

Consider A107U U143A, for which the self-cleavage stood at 1.48.

With G106A U134G, the self-cleavage stood at 1.86. The value for A107G A129U was 1.84; that for U108A U112C was 2.53; that for U100A G126A was 1.03. Regarding U102C G122U, the self-cleavage was 1.63. As to U102A G127A, the self-cleavage is 1.08. Next, A107G G126A: 1.71; U108C U130A: 2.75; U100C U143A: 1.15. The value for U100C U143G was 2.85.

On to U100G U104A, for which the self-cleavage was determined as 1.17.

For U104A C146U, the self-cleavage turned out to be 1.35. The value for U102C U130C was 1.24; that for U100G A136G was 0.59. The value for U100C U134A was 1.83. As for U100C U134C, the self-cleavage is 2.01. Next, U100G G137A: 0.77; U108A A138C: 1.32. Next, U100C G126C: 2.64. Next, U100C G144A: 1.07; U100C G144C: 1.95. In the case of U104C G127A, the self-cleavage is 1.47. In the case of A107G U134C, the self-cleavage was 1.33.

For A107G U134A, the self-cleavage amounted to 1.45. As to U104C A107G, the self-cleavage amounted to 1.86. Take U102C A107G: the self-cleavage was 1.67.

For U102C A107U, the self-cleavage stood at 0.42. Next, U109A A140G: 0.96; U102A A142G: 1.9; U100C A121G: 1.21. Next, U100C A121U: 2.11.

For the variant U104G U134C, the self-cleavage worked out at 1.39. Next, A107U A138U: 2.59. Regarding U104A C116A, the self-cleavage came out at 1.11. Next, U108C U112C: 1.74; U108C U112A: 1.94; U108G U134C: 2.7.

In the case of U108C A140U, the self-cleavage turned out to be 1.66. Next, U104C A129U: 1.73; U104C A129G: 2.04; U100A U119A: 0.71.

On to U100A U130C, for which the self-cleavage turned out to be 2.57. Regarding A107G U108G, the self-cleavage came to 1.53. The value for A107G U108A was 1.47; that for A107U U112C was 1.84. Next, C103A U130C: 1.9; U108C G114A: 1.71.

Take U100G A138G: the self-cleavage turned out to be 1.27. Next, U104G U132A: 1.06. G105U U109C: the self-cleavage was 1.93. Consider U108A U134C, for which the self-cleavage amounted to 1.19. The value for G105A A141U was 0; that for G105A A141G was 0.87; that for U100C C123U was 2.06. The value for U100C A138G was 1.83; that for U100C C111U was 1.48; that for C101U U132A was 2.01. The value for U102A U115C was 1.88; that for U102A U115G was 2.51; that for U102C A117G was 1.6.

On to U102C A117U, for which the self-cleavage was 1.07. Next, C103U A136G: 1.39; U102A C103U: 1.41. Next, U104C U143A: 1.56. Next, U104C U143C: 2.1; U104C G125U: 1.68. In the case of U102C C110U, the self-cleavage is 1.78.

Consider U108C C118U, for which the self-cleavage amounted to 2.01. The value for G106A A142U was 1.29; that for U102C U132A was 1.34. Consider U104C A124G, for which the self-cleavage was 2.57. Take U108G U119C: the self-cleavage is 2.59.

Turning to U102C C120U, the self-cleavage is 1.71.

Turning to U102C C120A, the self-cleavage was 2.26. Next, G106U G126A: 1.15; U104C U109G: 1.53; U104C U109C: 1.39. The value for U100A C145U was 1.15; that for U108C G125A was 1.22; that for U100A U134C was 1.12. In the case of U109A A136G, the self-cleavage was determined as 1.4. Next, U109A A136U: 2.61; U100C U119A: 2.09.

Regarding G105A U134A, the self-cleavage was determined as 1.54.

Consider G105A U134C, for which the self-cleavage came to 1.44. The value for A107G U112A was 1.45; that for A107G U112C was 1.68; that for U100A U108A was 0.97. The value for U100A U108C was 1.96.

U102A A117U: the self-cleavage came to 1.37. Next, U102A A117G: 1.31; U100C C131U: 2.27; U100C C131G: 2.35.

With U104C C145G, the self-cleavage came out at 2.3. Next, U102C G125U: 1.23; U104C U130C: 1.71. Next, U102C A136G: 1.34. For the variant A107C G114A, the self-cleavage worked out at 1.74. Next, G106C U108C: 2.2. Next, C101U G139U: 1.64; U108A A129U: 1.92; U102C C113G: 1.08. Next, U102C C113U: 1.48; U102C C113A: 1.63; U100C U102A: 1.95. Consider U102C U119A, for which the self-cleavage was found to be 1.45.

Take U102C U119C: the self-cleavage came out at 1.69. The value for U108C C128U was 1.78. The value for U104C U112C was 1.66. The value for U100C U130G was 1.02; that for U100C U130A was 1.85; that for A107G A140U was 0.94. On to C103U A124G, for which the self-cleavage came to 1.56. Next, U100C A141G: 1.9.

On to U108C A124U, for which the self-cleavage amounted to 1.81. Next, U108C A124G: 1.47. The value for U104C U134G was 0.75.

Regarding C103U U109C, the self-cleavage was determined as 0.53. The value for G106A U109C was 1.86. Next, U104A U143A: 0.88; U102C G137A: 1.8. Regarding U108C A117U, the self-cleavage is 1.83. The value for U100G U119C was 2.45; that for G106A U119C was 1.58. Next, G106A U119A: 0.75. Next, A107G U132C: 1.62; U102C C131A: 1.48; G106A A124G: 1.81. In the case of U108C U115A, the self-cleavage worked out at 1.86.

As to U108C A136U, the self-cleavage was determined as 1.93.

For the variant C101A A138G, the self-cleavage came to 1.36. Regarding A107U A140G, the self-cleavage is 1.58. Next, U100A U109A: 0.76. Next, C103U A107U: 1.2.

Take U102A A124G: the self-cleavage stood at 1.08. Take U108C A138U: the self-cleavage turned out to be 1.68. Regarding U100A C118U, the self-cleavage was 0.98. The value for U108C U134C was 1.57. Next, U108C U134A: 2.21. The value for U108C U143A was 0.26; that for G106U U132C was 1.31. Regarding U108C G137A, the self-cleavage is 0.89. Next, U102C A121U: 2.05. As for U102A U108C, the self-cleavage came to 1.14. The value for A107G A117U was 1.85; that for A107G A117G was 1.85.
